One molecule from publication PMC5038981 (DNA repair, 2015) can be followed below.

This assay addresses T1, GST-tagged Rad27 (S. cerevisiae, UniProt P26793 1-382).
T1 sequence (looked up): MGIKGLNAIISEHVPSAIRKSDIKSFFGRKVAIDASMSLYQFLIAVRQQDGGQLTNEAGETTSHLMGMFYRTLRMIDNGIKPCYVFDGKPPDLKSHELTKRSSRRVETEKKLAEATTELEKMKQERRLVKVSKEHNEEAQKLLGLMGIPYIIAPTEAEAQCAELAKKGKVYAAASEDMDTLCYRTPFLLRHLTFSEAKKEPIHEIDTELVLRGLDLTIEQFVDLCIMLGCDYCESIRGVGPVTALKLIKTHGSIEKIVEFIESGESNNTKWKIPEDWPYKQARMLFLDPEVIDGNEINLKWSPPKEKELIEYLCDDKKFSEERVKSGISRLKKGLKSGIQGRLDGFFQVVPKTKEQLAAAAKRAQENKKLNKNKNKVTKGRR
The assay can be described thus: pull-down.

B1: his-tagged Nej1 C-terminal fragment (residues 129-343) (domain or fragment, S. cerevisiae, UniProt Q06148 129-342, looked up)
chain: MFYMILQSLCMLLLKLVNLSTQYHYVQRDILNEKQKCLDFLLISLRDLDGGSKVISQWAPENSKNYESLQQCTDDDIIKKLLHKGKFQHQEFLADSLKTLLSLRNKFQDVSRFEESGELNKKERVRFPAVNHFYNDDFELQADPTNEARPNSRGKIKPKTDFKPKSRESSTSSQLRLENFSESEATPEKTKSSSSLVEEYPQKKRKFGKVRIKN
For the molecule B1, the binding result was “binds”.
